Results published in US20200157212A1 (Pfizer, published 2020).

Target: T1, Human ROBO2 overexpressed on HEK293 cells (human, UniProt Q9HCK4 22-1378)
T1 construct: also called ROBO2 cells; native ROBO2
T1 sequence: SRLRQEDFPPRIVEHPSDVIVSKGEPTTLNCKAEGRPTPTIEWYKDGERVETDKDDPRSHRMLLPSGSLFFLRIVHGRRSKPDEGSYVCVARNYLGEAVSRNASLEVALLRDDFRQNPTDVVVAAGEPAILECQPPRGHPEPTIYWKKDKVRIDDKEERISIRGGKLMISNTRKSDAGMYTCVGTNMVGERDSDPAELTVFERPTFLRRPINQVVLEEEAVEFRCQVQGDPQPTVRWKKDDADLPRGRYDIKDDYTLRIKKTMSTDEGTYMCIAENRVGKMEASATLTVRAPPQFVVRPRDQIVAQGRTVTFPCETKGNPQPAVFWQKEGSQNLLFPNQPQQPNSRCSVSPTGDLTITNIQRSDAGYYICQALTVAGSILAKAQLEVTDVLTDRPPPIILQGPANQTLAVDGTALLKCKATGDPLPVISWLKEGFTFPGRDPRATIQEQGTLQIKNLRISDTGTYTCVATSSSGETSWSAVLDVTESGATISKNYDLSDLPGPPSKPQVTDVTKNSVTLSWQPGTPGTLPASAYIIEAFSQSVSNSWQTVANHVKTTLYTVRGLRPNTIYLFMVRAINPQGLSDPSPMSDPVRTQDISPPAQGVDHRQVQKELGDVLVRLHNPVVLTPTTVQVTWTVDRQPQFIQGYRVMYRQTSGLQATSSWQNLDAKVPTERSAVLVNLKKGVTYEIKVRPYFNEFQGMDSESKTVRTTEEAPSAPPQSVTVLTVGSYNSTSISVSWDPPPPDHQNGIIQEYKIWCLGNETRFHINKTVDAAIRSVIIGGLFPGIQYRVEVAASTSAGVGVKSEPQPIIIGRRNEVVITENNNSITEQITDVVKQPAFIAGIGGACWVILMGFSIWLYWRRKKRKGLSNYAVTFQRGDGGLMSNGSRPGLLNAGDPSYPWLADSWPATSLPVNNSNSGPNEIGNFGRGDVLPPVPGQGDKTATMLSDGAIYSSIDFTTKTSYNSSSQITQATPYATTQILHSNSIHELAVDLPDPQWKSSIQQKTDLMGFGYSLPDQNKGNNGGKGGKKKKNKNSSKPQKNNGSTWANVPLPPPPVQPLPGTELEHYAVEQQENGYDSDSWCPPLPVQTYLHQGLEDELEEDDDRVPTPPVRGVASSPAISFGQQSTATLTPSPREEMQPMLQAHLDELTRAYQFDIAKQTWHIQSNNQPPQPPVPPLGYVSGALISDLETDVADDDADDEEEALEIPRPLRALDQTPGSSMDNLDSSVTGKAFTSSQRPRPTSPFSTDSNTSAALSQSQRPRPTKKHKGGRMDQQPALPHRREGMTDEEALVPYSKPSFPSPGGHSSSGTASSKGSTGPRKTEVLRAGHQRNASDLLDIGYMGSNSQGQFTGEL
Assay: flow cytometry, HEK293 cells overexpressing human ROBO2
Experimental: Binding of the antibodies was detected using a secondary fluorochrome conjugated anti-human IgG F(ab′)₂ antibody and samples were analyzed on a Fortessa cytometer (BD Biosciences). The fold ROBO2 selectivity was calculated as the geometric mean fluorescence intensity (Geo MFI) with ROBO2 cells/Geo MFI with ROBO1 cells. A fold change higher than 3 was considered to be ROBO2 specific (Table 2, Fold Selectivity). Some affinity matured clones had increased ROBO1 reactivity, for example Abcs 55, CTI-R2-10 and CTIR2-13.
Based upon several criteria, Abcs25 and Abcs35 were selected for further characterization. Using flow cytometry, improvement in the binding EC₅₀ to human ROBO2 relative to the parental 93H2 was evaluated. Starting at 6.7 nM, 11-point, 3-fold dilution series were made for each antibody and used to stain HEK293 overexpressing human ROBO2 as described above for the ROBO2 fold selectivity (Example 2). […] In addition to measuring improved binding to human ROBO2, it was important to ensure that high affinity binding to both cynomolgus monkey ROBO2 and rat ROBO2 was maintained. Using HEK293 cells overexpressing either cynomolgus monkey ROBO2 or rat ROBO2, the relative dose-dependent binding of 93H2, Abcs25 and Abcs35 was evaluated as described above. High affinity binding to both cynomolgus monkey and rat ROBO2 was maintained in Abcs25 and Abcs35 (Table 4). […] Briefly, Abcs35 was immobilized to 300 resonance units (RU) on a CM5 chip. Association of ROBO2 Ig1-Ig2-His (ROBO2) was measured over 5 minutes and dissociation was followed for a period of 10 minutes.

Binder | EC50
93H2 (antibody, human IgG1, kappa, V domains shown, also called parental 93H2; 93H2 mAb) VH: EVQLVQSGAEVKKPGASVKVSCKASGYTFTGYYMHWVRQAPGQGLEWMGWINPNSGATNFPQKFQGRVTMTRDTSITTAYMDLSRLRSDDTAVYYCARESGDDAFDIWGQGTMVTVSS VL: not shown | 0.133 nM
Abcs25 (antibody, human IgG1, kappa, V domains shown, chain-shuffled IgG) VH: EVQLVQSGAEVKKPGASVKVSCKASGYTFTGYYMHWVRQAPGQGLEWMGWINPKDGDTEFPQKFQGRVTMTRDTSITTAYMDLSRLRSDDTAVYYCARESGDDAFDIWGQGTMVTVSS VL: DIVMTQSPSSLSASVGDRVTITCRASQSISSYLNWYQQKPGKAPKLLIYAASSLQSGVPSRFSGSGSGTDFTLTISSLQPEDFATYYCQQSVGLSFGGGTKVEIKR | 0.056 nM
Abcs35 (antibody, human IgG1, kappa, fully human IgG1; VH of Ab96 with VL of Ab123) heavy: EVQLVQSGAEVKKPGASVKVSCKASGYTFTGYYMHWVRQAPGQGLEWMGWINPKNGDTEFPQKFQGRVTMTRDTSITTAYMDLSRLRSDDTAVYYCARESGDDAFDIWGQGTMVTVSSASTKGPSVFPLAPSSKSTSGGTAALGCLVKDYFPEPVTVSWNSGALTSGVHTFPAVLQSSGLYSLSSVVTVPSSSLGTQTYICNVNHKPSNTKVDKKVEPKSCDKTHTCPPCPAPEAAGAPSVFLFPPKPKDTLMISRTPEVTCVVVDVSHEDPEVKFNWYVDGVEVHNAKTKPREEQYNSTYRVVSVLTVLHQDWLNGKEYKCKVSNKALPAPIEKTISKAKGQPREPQVYTLPPSREEMTKNQVSLTCLVKGFYPSDIAVEWESNGQPENNYKTTPPVLDSDGSFFLYSKLTVDKSRWQQGNVFSCSVMHEALHNHYTQKSLSLSPGK light: DIVMTQSPSSLSASVGDRVTITCRASQSISSYLNWYQQKPGKAPKLLIYAASSLQSGVPSRFSGSGSGTDFTLTISSLQPEDFATYYCQQSVGLFFGGGTKVEIKRTVAAPSVFIFPPSDEQLKSGTASVVCLLNNFYPREAKVQWKVDNALQSGNSQESVTEQDSKDSTYSLSSTLTLSKADYEKHKVYACEVTHQGLSSPVTKSFNRGEC | 0.055 nM
